Experimental data taken from the Human Domainome abundance scans (Beltran et al. 2025).
± gives the uncertainty stated by the source.

B1: Transcriptional regulator ERG, residues 117 to 197; numbered along this chain, P11308 (parent)
chain: NMTTNERRVIVPADPTLWSTDHVRQWLEWAVKEYGLPDVNILLFQNIDGKELCKMTKDDFQRLTPSYNADILLSHLHYLRE

Variants of: B1
Experiment: abundance fitness (aPCA) (normalised: wild type 0, dead -1); higher = more abundant; growth selection in yeast, the domain comes from the species named
Conditions: Homo sapiens

Abundance fitness: each site, then its substitutions
W18: Y -0.738 ± 0.16, A -0.676 ± 0.09, N -0.994 ± 0.29, G -0.895 ± 0.086, K -0.625 ± 0.11, S -0.864 ± 0.13, E -0.885 ± 0.12, H -1.04 ± 0.46, F -0.886 ± 0.25, P -1.17 ± 0.32, L -0.979 ± 0.13, C -1.04 ± 0.19, M -0.635 ± 0.11, D -0.923 ± 0.25, V -0.937 ± 0.1, R -0.785 ± 0.07, Q -0.578 ± 0.19
D21: Q -0.087 ± 0.051, A 0.004 ± 0.039, L -0.106 ± 0.04, F 0.024 ± 0.074, C -0.09 ± 0.061, Y -0.186 ± 0.071, S -0.008 ± 0.042, N -0.113 ± 0.083, I -0.035 ± 0.083, V -0.077 ± 0.038, W -0.141 ± 0.048, K -0.138 ± 0.054, G -0.032 ± 0.032, R -0.051 ± 0.034, M -0.084 ± 0.057, T -0.065 ± 0.053, H -0.09 ± 0.1, E 0.042 ± 0.04
R24: E -0.211 ± 0.053, F -0.218 ± 0.14, K 0 ± 0.056, I -0.162 ± 0.1, W -0.522 ± 0.076, T 0.069 ± 0.055, M -0.023 ± 0.055, H -0.182 ± 0.11, C -0.058 ± 0.071, P -0.988 ± 0.18, Q 0.077 ± 0.059, D -0.908 ± 0.24, S -0.02 ± 0.046, V -0.015 ± 0.04, G -0.088 ± 0.037, N -0.105 ± 0.13, L -0.017 ± 0.044, Y -0.209 ± 0.097
T20: P 0.06 ± 0.058, G -0.225 ± 0.035, W -0.413 ± 0.061, Y -0.276 ± 0.1, N -0.072 ± 0.068, D -0.206 ± 0.063, Q -0.064 ± 0.052, S -0.053 ± 0.047, I -0.11 ± 0.08, F -0.205 ± 0.11, R -0.05 ± 0.035, M -0.219 ± 0.071, H -0.012 ± 0.088, L -0.198 ± 0.05, A 0.021 ± 0.039, E 0.011 ± 0.041
W29: D 0.21 ± 0.057, A 0.101 ± 0.042, H 0.082 ± 0.085, E 0.127 ± 0.045, T 0.065 ± 0.055, M -0.038 ± 0.055, R -0.006 ± 0.032, L -0.168 ± 0.054, C 0.017 ± 0.06, P -1.08 ± 0.31, I -0.07 ± 0.083, Y 0.006 ± 0.084, S 0.11 ± 0.044, G 0.111 ± 0.03, K 0.048 ± 0.058, V -0.143 ± 0.045, F -0.098 ± 0.11
H22: A -0.286 ± 0.048, Y -0.672 ± 0.13, S -0.357 ± 0.054, E 0.018 ± 0.047, N 0.074 ± 0.066, I -0.488 ± 0.13, P -1.06 ± 0.18, D -0.014 ± 0.057, M -0.033 ± 0.054, W -0.55 ± 0.091, V -0.198 ± 0.041, C -0.229 ± 0.068, L -0.532 ± 0.065, F -0.701 ± 0.2, T -0.324 ± 0.064, G -0.18 ± 0.036
A30: D -0.884 ± 0.22, Y -0.655 ± 0.2, P -0.956 ± 0.2, V -0.095 ± 0.046, K -0.105 ± 0.061, S -0.103 ± 0.05, I -0.164 ± 0.11, E -0.051 ± 0.054, G -0.181 ± 0.04, H -0.108 ± 0.092, T -0.051 ± 0.058, C -0.117 ± 0.062, L -0.103 ± 0.046, W -0.324 ± 0.067, F -0.403 ± 0.14, N -0.217 ± 0.085, Q -0.018 ± 0.059
A13: W -0.122 ± 0.051, Y -0.075 ± 0.087
V23: G -0.997 ± 0.09, W -0.798 ± 0.14, R -1.04 ± 0.13, T -0.167 ± 0.066, Y -0.905 ± 0.32, K -0.991 ± 0.2, D -0.781 ± 0.18, N -0.475 ± 0.24, P -0.877 ± 0.2, I -0.5 ± 0.13, S -0.761 ± 0.13, C -0.328 ± 0.095, A -0.68 ± 0.077, H -0.846 ± 0.31, L -0.874 ± 0.14, Q -1.04 ± 0.24
E28: H 0.005 ± 0.12, W -0.16 ± 0.058, S -0.099 ± 0.047, I -0.108 ± 0.092, F -0.24 ± 0.13, C -0.037 ± 0.066, V -0.04 ± 0.042, D -0.146 ± 0.091, N 0.012 ± 0.081, K -0.041 ± 0.064, A -0.022 ± 0.045, R -0.095 ± 0.039, Q -0.062 ± 0.068, P -0.534 ± 0.13, Y -0.093 ± 0.087, T -0.031 ± 0.061, L -0.09 ± 0.049
W26: A -0.886 ± 0.11, Q -0.811 ± 0.19, I -0.942 ± 0.25, N -0.657 ± 0.21, Y 0.011 ± 0.073, R -0.808 ± 0.072, T -1.34 ± 0.32, V -0.778 ± 0.081, P -0.956 ± 0.17, C -0.982 ± 0.21, F -0.068 ± 0.08, H -0.96 ± 0.36, G -0.965 ± 0.075, K -0.785 ± 0.13, S -0.76 ± 0.094, L -0.658 ± 0.073, E -0.727 ± 0.1
V31: C -0.111 ± 0.085, D -0.498 ± 0.12, N -0.218 ± 0.11, K 0.06 ± 0.059, P -0.649 ± 0.14, G -0.164 ± 0.037, M -0.003 ± 0.071, I 0.02 ± 0.08, R -0.054 ± 0.038, Q -0.086 ± 0.064, E -0.154 ± 0.051, H -0.14 ± 0.1, S -0.015 ± 0.045, T 0.001 ± 0.064, W -0.439 ± 0.09
S19: V -0.716 ± 0.071, F -0.719 ± 0.23, K -0.065 ± 0.052, R -0.145 ± 0.036, H -0.18 ± 0.1, Y -0.798 ± 0.22, P -0.994 ± 0.17, N -0.008 ± 0.064, Q -0.235 ± 0.07, T -0.073 ± 0.055, E -0.129 ± 0.049, A -0.223 ± 0.047, G -0.133 ± 0.033, L -0.565 ± 0.069, W -0.683 ± 0.088, I -0.697 ± 0.17, D -0.014 ± 0.061
K32: P -0.468 ± 0.1, F -0.166 ± 0.095, V -0.036 ± 0.04, W -0.158 ± 0.049, Y -0.198 ± 0.1, T -0.044 ± 0.055, M 0.003 ± 0.057, S -0.111 ± 0.048, D -0.028 ± 0.066, Q -0.109 ± 0.063, N 0.05 ± 0.088, E 0.053 ± 0.045, R -0.052 ± 0.035, H -0.037 ± 0.18, I 0.005 ± 0.069, G -0.103 ± 0.034, A -0.103 ± 0.041
P15: F -0.273 ± 0.085, W -0.516 ± 0.091, A -0.269 ± 0.053, I -0.171 ± 0.072, V -0.267 ± 0.047, R -0.835 ± 0.09, D -0.94 ± 0.17, H -0.86 ± 0.19, S -0.611 ± 0.076, Y -0.266 ± 0.065, M -0.638 ± 0.13, N -0.967 ± 0.19, L -0.41 ± 0.056, K -0.915 ± 0.17, Q -0.495 ± 0.092, E -0.86 ± 0.15, G -0.803 ± 0.088, C -0.323 ± 0.069, T -0.632 ± 0.085
D14: V -0.656 ± 0.094, N -0.083 ± 0.07, I -0.726 ± 0.2, C -0.085 ± 0.065, K -0.872 ± 0.19, E -0.346 ± 0.089, W -0.809 ± 0.15, F -0.444 ± 0.12, M -0.537 ± 0.11, H -0.146 ± 0.093, T -0.417 ± 0.078, A -0.716 ± 0.096, G -0.706 ± 0.073, L -0.771 ± 0.13, Y -0.723 ± 0.16, R -0.783 ± 0.092, P -0.898 ± 0.17
Q25: E 0.022 ± 0.045, C -0.015 ± 0.073, S -0.05 ± 0.046, Y -0.07 ± 0.073, I -0.001 ± 0.082, G -0.095 ± 0.034, F -0.072 ± 0.08, A 0.03 ± 0.037, L 0.064 ± 0.042, P -1 ± 0.2, D -0.061 ± 0.066, K -0.015 ± 0.052, H -0.046 ± 0.074, R -0.003 ± 0.034, M 0.022 ± 0.059, V 0.01 ± 0.037, N -0.214 ± 0.076
L17: S 0.122 ± 0.051, R 0.039 ± 0.038, E 0.093 ± 0.043, G 0.074 ± 0.037, N 0.053 ± 0.08, W -0.041 ± 0.051, H 0.045 ± 0.15, V 0.017 ± 0.043, F -0.295 ± 0.12, M 0.046 ± 0.059, Y -0.097 ± 0.073, T 0.154 ± 0.06, I -0.002 ± 0.12, Q 0.033 ± 0.064, P -1.08 ± 0.4, D 0.091 ± 0.064, C 0.042 ± 0.079
L27: R -0.912 ± 0.092, N -1.02 ± 0.29, C -0.47 ± 0.11, Q -0.658 ± 0.19, I -0.085 ± 0.09, M -0.153 ± 0.056, W -0.891 ± 0.14, F -0.493 ± 0.11, E -0.965 ± 0.12, K -0.623 ± 0.12, D -0.648 ± 0.13, Y -0.584 ± 0.15, S -1 ± 0.12, P -0.593 ± 0.14, T -0.628 ± 0.098
E33: G -0.429 ± 0.045, S -0.035 ± 0.049, P -0.929 ± 0.2, D 0.002 ± 0.076, F -0.034 ± 0.089, N -0.059 ± 0.095, W -0.169 ± 0.05, I -0.193 ± 0.12, T -0.15 ± 0.069, H -0.108 ± 0.11, K 0.029 ± 0.058, C -0.307 ± 0.095, M -0.105 ± 0.063
T16: D -0.115 ± 0.072, H 0.128 ± 0.09, Y 0.017 ± 0.081, C 0.028 ± 0.066, P -0.428 ± 0.11, N -0.061 ± 0.075, G -0.026 ± 0.033, M 0.02 ± 0.053, Q -0.171 ± 0.083, L 0.052 ± 0.046, S -0.064 ± 0.054, I 0.048 ± 0.082, K -0.05 ± 0.059, W -0.115 ± 0.054, R -0.092 ± 0.038, F -0.008 ± 0.11
